Measured values from patent publication US20030119733A1, “Compositions and methods for inhibiting hepatocyte invasion by malarial sporozoites” (New York University, priority 1992, published 2003).

Tests used:
[1] = system: rat liver sections; test: Staining of frozen tissue sections with recombinant CS polypeptides; type: binding; conditions: revealed with MAb 2A10, fluorescence; CS27IVC 50-5 μg/ml, Falciparum-2 25 μg/ml, Falciparum-1 up to 250 μg/ml
Description: The procedure was carried out essentially as described by Dukor P. et al., Proc. Natl. Acad. Sci. USA 67:991-997, 1970 and Imai Y. et al., J. Cell. Biol. 111:1225-1232, 1990. Rats were euthanized with CO2. Small pieces of the liver, spleen, heart, brain and lung were removed, snap frozen in liquid nitrogen, embedded in Tissue Tek O.C.T. (Miles, Inc., Naperville, Ill.), and cut into 5 μm sections. Sections were dried for 30 min., fixed for 10 min. in 4% paraformaldehyde, rinsed three times with phosphate-buffered saline (PBS), and either used immediately or stored at 4° C. in 1% BSA, 0.5% Tween, PBS (BSA/TPBS). After blocking with 100 mM glycine (pH 7.2) and with BSA/TPBS, the sections were sequentially incubated at 37° C. with recombinant proteins for 1 hr, 10 μg/ml MAb 2A10 for 45 min., and rat anti-mouse immunoglobulin conjugated to fluorescein isothiocyanate (Boehringer Mannheim, Indianapolis, Ind.) for 45 min. The slides were counterstained for 10 min. with 0.3% Evans blue, rinsed extensively in PBS, and finally observed under a fluorescence microscope. For peptide inhibition experiments, the sections were first incubated with the peptide at various concentrations in BSA/TPBS for 1 hour at 37° C., washed six times with BSA/TPBS, and then stained with 2.5 μg/ml CS recombinant protein as described above. In a few experiments, the tissues were fixed for 10 min. with methanol, acetone, or 4% paraformaldehyde containing 0.5% glutaraldehyde.
Frozen sections of various rat organs were incubated with recombinant CS27IVC polypeptide. […] The staining closely followed the sinusoidal spaces of the hepatic lobules, indicating CS binding to the hepatocyte membrane. Other areas of the liver sections and sections of other organs (spleen, lung, heart or brain) were not stained. Control sections (incubated with CS27IVC in the absence of antibody or vice versa) were not stained either.
To define the region of the CS that mediates the perisinusoidal staining various other recombinant constructs were also used in the frozen section assay.

[2] = system: hepatocyte microvilli in the Space of Disse; test: Electron immunomicroscopy of liver sections; type: binding, rat; conditions: MAb 2A10 and gold conjugate
Description: Rat or mouse liver tissue or hepatocyte subcellular fractions from Example 2 were fixed in PBS containing 1% glutaraldehyde (grade 1, Sigma, St. Louis, Mo.) and 4% paraformaldehyde (Kodak, Rochester, N.Y.), dehydrated in ethanol, and embedded in LR White (Polysciences, Warrington, Wash.). (Frevert et al., Infect. and Immun. 60:2349-2360, June 1992.) Normal human liver was embedded in Lowicryl K4M (Ted Pella, Redding, Calif.). Ultrathin sections were labelled by incubating them sequentially with 10-50 μg/ml CS27IVC, CSFZ (Cys), Falc-2, or Falc-1 for 30 min.; 15 μg/ml MAb 2A10 for 30 min.; protein A-gold 15 nm (PAG15, 1:30; Amersham, Arlington, Ill.) or goat anti-mouse IgG gold 10 nm (GAM10, 1:30; Amersham) for 30 min. Control specimens were incubated in the absence of CS and only with the gold conjugates. Photographs were taken with a Philips EM 301 electron microscope.
To identify the hepatocyte structures interacting with the CS, glutaraldehyde-fixed and LR White-embedded thin sections of rat liver were incubated with the recombinant CS polypeptide CS27IVC, mAb 2A10 and goat anti-mouse IgG-gold and analyzed by immunoelectron microscopy. Human liver tissue embedded in K4M was also labelled with CS27IVC followed by MAb 2A10 and protein A-gold.

[3] = system: heparan sulfate proteoglycans (HSPG); test: CS/proteoglycan co-immunoprecipitation; type: binding, human; conditions: for co-immunoprecipitation of 35SO4-labeled sulfated molecules: lysates of rat liver, HepG2 cells, kidney, others 64 μg/ml; for total sulfate-labeled proteoglycans precipitated: trypsin-released proteoglycan, equivalent concentrations of Region II+
Description: All extracts and supernatants were first precleared with normal rabbit serum and Staph A cells. Then 32 μg/ml of CSFZ(Cys) or 64 μg/ml of CS27IVC, Falc-2 or Falc-1 were added for 30 minutes, followed by 10.8 μg/ml mAb 2A10 for 30 minutes, and 1% Staph A cells (final concentrations). The suspensions were shaken for 1 to 5 hours at 4° C. The Staph A cells were washed 3 times with the lysis buffer A, 2 times with lysis buffer B (10 mM Tris-HCl, pH 7.2, containing 100 mM NaCl and 0.5% NP40), 1 time with 50 mM Tris-HCl, ph 7.2, and were processed in this buffer for electrophoresis under reducing and non-reducing conditions.
Extracts of cells metabolically labeled with ^35SO4 were incubated for 30 minutes at 4° C. with 32 μg/ml of recombinant CSFZ(Cys) or 64 μg/ml Falc-1, and were immunoprecipitated with mAb 2A10 and Staph A cells. […] Immunoprecipitation with Falc-1 was negative. The SDS-PAGE patterns of the total lysate of HepG2 cells, and of the molecules co-immunoprecipitated with CSFZ(Cys) resembled the corresponding liver SDS-PAGE patterns. In kidney lysates, CSFZ(Cys) selectively immunoprecipitated a band of slightly lower molecular weight than the total kidney sulfated molecules.
Sub-confluent HepG2 cells were incubated with various concentrations of trypsin for 5 minutes at 4° C. […] Independently of the trypsin concentration, about 80% of the released HSPG was co-immunoprecipitated by 32 μg/ml CSFZ(Cys) and 10.8 μg/ml mAb 2A10. Under the same conditions, Falc-1 was negative.
^35SO4-labeled trypsin-released proteoglycan (total supernatant) was precipitated by CSFZ(Cys) (32 μg/ml), Falc-2 (64 μg/ml), CS27IVC (64 μg/ml) and Falc-1 (64 μg/ml). The labeled molecules were incubated with CSFZ(Cys), CS27IVC, and Falc-2 at equivalent concentrations of Region II+, and co-immunoprecipitated with the mAb 2A10. CSFZ(Cys), lacking most of the repeat region, precipitated up to 86% of the total sulfate-labeled proteoglycans (see FIG. 14), while CS27IVC and Falc-2 precipitated only 18% and 6% of the counts, respectively. Falc-1, which lacks Region II+, was negative.
Subconfluent sulfate-labeled HepG2 cells were incubated with 20 μg/ml trypsin for 5 minutes at 4° C., and the supernatants were loaded onto an anion exchange chromatography Pharmacia mono-Q column. These were eluted with a 0 to 2 M NaCl gradient in the presence of 7 M urea. […] Protein was not detectable in the labeled peaks. One ml fractions were collected and counted.

Row | Molecule | binding (staining) to frozen liver sections [1] | gold labelling of liver sections [2] | co-immunoprecipitation of 35SO4-labeled sulfated molecules ([3]; CSFZ(Cys) 32 μg/ml) | total sulfate-labeled proteoglycans precipitated [3] | co-immunoprecipitation of 35SO4-labeled sulfated molecules ([3]; CSFZ(Cys) 32 μg/ml, listed as Falc-1) | released HSPG co-immunoprecipitated ([3]; trypsin-released from HepG2 cells, CSFZ(Cys) 32 μg/ml, mAb 2A10 10.8 μg/ml)
1 | Falciparum-2: fragment of P. falciparum CS protein with repeats and Region II+ (residues 43-391) (protein) AGTNLYNELEMNYYGKQENWYSLKKNSRSLGENDDGNNNNGDNGREGKDEDKRDGNNEDNEKLRKPKHKKLKQPGDGNPDPNANPNVDPNANPNVDPNANPNVDPNANPNANPNANPNANPNANPNANPNANPNANPNANPNANPNANPNANPNANPNANPNANPNVDPNANPNANPNANPNANPNANPNANPNANPNANPNANPNANPNANPNANPNANPNANPNANPNANPNANPNANPNANPNKNNQGNGQGHNMPNDPNRNVDENANANNAVKNNNNEEPSDKHIEQYLKKIKNSISTEWSPCSVTCGNGIQVRIKPGSANKPKDELDYENDIEKKICKMEKCSS | bound to the liver sections | essentially the same results but with lower staining intensity | less efficient | 6% |  | 
2 | Falciparum-1: Same as Falciparum-2 minus most of Region II+ (P. falciparum residues 43-348) (protein) AGTNLYNELEMNYYGKQENWYSLKKNSRSLGENDDGNNNNGDNGREGKDEDKRDGNNEDNEKLRKPKHKKLKQPGDGNPDPNANPNVDPNANPNVDPNANPNVDPNANPNANPNANPNANPNANPNANPNANPNANPNANPNANPNANPNANPNANPNANPNANPNVDPNANPNANPNANPNANPNANPNANPNANPNANPNANPNANPNANPNANPNANPNANPNANPNANPNANPNANPNANPNKNNQGNGQGHNMPNDPNRNVDENANANNAVKNNNNEEPSDKHIEQYLKKIKNSISTEWSP | did not bind | negative |  | negative | Negative results | negative
